From paper PMC9479004, “Cloning and characterization of a novel functional organic anion transporting polypeptide 3A1 isoform highly expressed in the human brain and testis” (Frontiers in Pharmacology, 2022) come the findings set out here.

Sequences and labels used below:
B1: OATP3A1_V1 (Homo sapiens; E294D) (protein)
chain: MQGKKPGGSSGGGRSGELQGDEAQRNKKKKKKVSCFSNIKIFLVSECALMLAQGTVGAYLVSVLTTLERRFNLQSADVGVIASSFEIGNLALILFVSYFGARGHRPRLIGCGGIVMALGALLSALPEFLTHQYKYEAGEIRWGAEGRDVCAANGSGGDEGPDPDLICRNRTATNMMYLLLIGAQVLLGIGATPVQPLGVSYIDDHVRRKDSSLYIGILFTMLVFGPACGFILGSFCTKIYVDAVFIDTSNLDITPDDPRWIGAWWGGFLLCGALLFFSSLLMFGFPQSLPPHSDPAMESEQAMLSEREYERPKPSNGVLRHPLEPDSSASCFQQLRVIPKVTKHLLSNPVFTCIILAACMEIAVVAGFAAFLGKYLEQQFNLTTSSANQLLGMTAIPCACLGIFLGGLLVKKLSLSALGAIRMAMLVNLVSTACYVSFLFLGCDTGPVAGVTVPYGNSTAPGSALDPYSPCNNNCECQTDSFTPVCGADGITYLSACFAGCNSTNLTGCACLTTVPAENATVVPGKCPSPGCQEAFLTFLCVMCICSLIGAMAQTPSVIILIRTVSPELKSYALGVLFLLLRLLGFIPPPLIFGAGIDSTCLFWSTFCGEQGACVLYDNVVYRYLYVSIAIALKSFAFILYTTTWQCLRKNYKRYIKNHEGGLSTSEFFASTLTLDNLGRDPVPANQTHRTKFIYNLEDHEWCENMESVL
notes: full-length ORF from brain RNA, 710 residues, E294D polymorphism (rs1517618), untagged, lentiviral overexpression in HEK-293
B2: OATP3A1_V2 (Homo sapiens; E294D) (protein)
chain: MQGKKPGGSSGGGRSGELQGDEAQRNKKKKKKVSCFSNIKIFLVSECALMLAQGTVGAYLVSVLTTLERRFNLQSADVGVIASSFEIGNLALILFVSYFGARGHRPRLIGCGGIVMALGALLSALPEFLTHQYKYEAGEIRWGAEGRDVCAANGSGGDEGPDPDLICRNRTATNMMYLLLIGAQVLLGIGATPVQPLGVSYIDDHVRRKDSSLYIGILFTMLVFGPACGFILGSFCTKIYVDAVFIDTSNLDITPDDPRWIGAWWGGFLLCGALLFFSSLLMFGFPQSLPPHSDPAMESEQAMLSEREYERPKPSNGVLRHPLEPDSSASCFQQLRVIPKVTKHLLSNPVFTCIILAACMEIAVVAGFAAFLGKYLEQQFNLTTSSANQLLGMTAIPCACLGIFLGGLLVKKLSLSALGAIRMAMLVNLVSTACYVSFLFLGCDTGPVAGVTVPYGNSTAPGSALDPYSPCNNNCECQTDSFTPVCGADGITYLSACFAGCNSTNLTGCACLTTVPAENATVVPGKCPSPGCQEAFLTFLCVMCICSLIGAMAQTPSVIILIRTVSPELKSYALGVLFLLLRLLGFIPPPLIFGAGIDSTCLFWSTFCGEQGACVLYDNVVYRYLYVSIAIALKSFAFILYTTTWQCLRKNYKRYIKNHEGGLSTSTEYQDIETEKTCPESHSPSEDSFVRS
notes: full-length ORF from brain RNA, 692 residues, E294D polymorphism (rs1517618), untagged, lentiviral overexpression in HEK-293
B3: OATP3A1_V3 (Homo sapiens; E294D) (protein)
chain: MQGKKPGGSSGGGRSGELQGDEAQRNKKKKKKVSCFSNIKIFLVSECALMLAQGTVGAYLVSVLTTLERRFNLQSADVGVIASSFEIGNLALILFVSYFGARGHRPRLIGCGGIVMALGALLSALPEFLTHQYKYEAGEIRWGAEGRDVCAANGSGGDEGPDPDLICRNRTATNMMYLLLIGAQVLLGIGATPVQPLGVSYIDDHVRRKDSSLYIGILFTMLVFGPACGFILGSFCTKIYVDAVFIDTSNLDITPDDPRWIGAWWGGFLLCGALLFFSSLLMFGFPQSLPPHSDPAMESEQAMLSEREYERPKPSNGVLRHPLEPDSSASCFQQLRVIPKVTKHLLSNPVFTCIILAACMEIAVVAGFAAFLGKYLEQQFNLTTSSANQLLGMTAIPCACLGIFLGGLLVKKLSLSALGAIRMAMLVNLVSTACYVSFLFLGCDTGPVAGVTVPYGNSTAPGSALDPYSPCNNNCECQTDSFTPVCGADGITYLSACFAGCNSTNLTGCACLTTVPAENATVVPGKCPSPGCQEAFLTFLCVMCICSLIGAMAQTPSVIILIRTVSPELKSYALGVLFLLLRLLGFIPPPLIFGAGIDSTCLFWSTFCGEQGACVLYDNVVYRYLYVSIAIALKSFAFILYTTTWQCLRKNYKRYIKNHEGGLSTTSEPDRIQNKERMTSCGRVLEATCAAGPQSLL
notes: full-length ORF from brain RNA, 697 residues, E294D polymorphism (rs1517618), untagged, lentiviral overexpression in HEK-293; C-terminal peptide (C)VLEATCAAGPQSLL

Usually Km stands for the substrate concentration at which the rate is half of its maximum.

Substrate in this series: CCN(CC)c1ccc2cc(/C=C/c3cc[n+](CCCN=[N+]=[N-])cc3S(=O)(=O)[O-])c(=O)oc2c1
Briefly: fluorescent dye uptake by flow cytometry, HEK-293 overexpressing cells. The following applies: pH 7.4, 37 °C, 10 min, 5-400 µM ACPS, mock-subtracted. Type of series: cell-based, Homo sapiens.
As to B1, the Michaelis-Menten constant (Km) turned out to be 37.7 µM. With B2, the Km stood at 31.7 µM. The result for B3 reads 35 µM.
